Tests used:
[1] = biological target: T1, HER3 on HER3-expressing tumor cells (human, UniProt P21860 20-1342); assay: flow cytometry, A431 cells
T1 construct: Endogenous HER3 of human tumor cell lines (MCF-7, FaDu, BT474, A431, NCI-N87, A549, SKBR-3, Colo205, HCT-116, A375 and melanoma lines); also called cellular receptor HER3; cell surface expressed HER3

[2] = biological target: T1, HER3 on HER3-expressing tumor cells; assay: flow cytometry, FaDu cells (text; Table 3 prints 0.30)
[3] = biological target: T1, HER3 on HER3-expressing tumor cells; assay: flow cytometry on MCF-7 cells, PE-labeled secondary antibody; the small table prints no unit, the axis is Concentration [nM] [panel MCF7]
[4] = biological target: T1, HER3 on HER3-expressing tumor cells; assay: flow cytometry, A549 cells
[5] = biological target: T2, HER3 fragment aa 20-550 Fc fusion protein (DI-III plus part of DIV) (human, UniProt P21860 20-550); assay: ELISA, coated HER3-Fc fragments
T2 construct: not shown: IgG1 Fc part

[6] = biological target: T3, HER3 fragment aa 329-550 Fc fusion protein (human, UniProt P21860 329-550); assay: ELISA, coated HER3-Fc fragments
T3 construct: not shown: IgG1 Fc part

[7] = biological target: T4, HER3 fragment aa 359-587 Fc fusion protein (human, UniProt P21860 359-587); assay: ELISA, coated HER3-Fc fragments
T4 construct: not shown: IgG1 Fc part

[8] = biological target: T1, HER3 on HER3-expressing tumor cells; assay: flow cytometry on BT474 cells, PE-labeled secondary antibody; the small table prints no unit, the axis is Concentration [nM] [panel BT474]
[9] = biological target: T1, HER3 on HER3-expressing tumor cells; assay: flow cytometry, FaDu cells; FaDu cells; Table 3 experiment, alongside scDb hu225x3-43-Fc
[10] = biological target: T1, HER3 on HER3-expressing tumor cells; assay: flow cytometry, MCF-7 cells; MCF-7 cells
[11] = biological target: T5, mouse HER3-Fc fusion protein (extracellular region of mouse HER3 fused to a human Fc region) (mouse, UniProt Q61526 20-641); assay: ELISA, coated mouse HER3-Fc, serial dilution of IgG 3-43, absorption at 450 nm
T5 construct: extracellular domain; not shown: human Fc region

[12] = biological target: T1, HER3 on HER3-expressing tumor cells; assay: flow cytometry on FaDu cells, PE-labeled secondary antibody; the small table prints no unit, the axis is Concentration [nM] [panel FADU]
[13] = biological target: T1, HER3 on HER3-expressing tumor cells; assay: flow cytometry, SKBR-3 cells; SKBR-3 cells
[14] = biological target: T1, HER3 on HER3-expressing tumor cells; assay: flow cytometry, NCI-N87 cells
[15] = biological target: T6, HER3-Fc fusion protein (Fc fusion protein of the extracellular domain of human HER3, limits not stated at the … (human, UniProt P21860 20-643)); assay: quartz crystal microbalance (Attana), IgG 3-43 on chip, HER3-Fc as analyte
T6 construct: also called wild-type HER3-Fc; human HER3-Fc fusion protein; not shown: human Fc region

[16] = biological target: T1, HER3 on HER3-expressing tumor cells; assay: flow cytometry, MCF-7 cells
HER3-ECD protein = biological target: T7, HER3-ECD protein (Homo sapiens (Human), UniProt P21860 20-643); assay: ELISA, immobilized HER3-ECD
T7 construct: also called receptor-ECD protein

[17] = biological target: T1, HER3 on HER3-expressing tumor cells; assay: flow cytometry on A431 cells, PE-labeled secondary antibody; the small table prints no unit, the axis is Concentration [nM] [panel A431]
[18] = biological target: T8, HER3 fragment aa 359-643 Fc fusion protein (part of DIII and the entire DIV) (human, UniProt P21860 359-643); assay: ELISA, coated HER3-Fc fragments at 10 µg/ml, anti-human Fab-HRP
T8 construct: not shown: IgG1 Fc part

[19] = biological target: T9, Fc fusion protein containing HER3 DI-DIII (aa 20-531; lacking DIV) (human, UniProt P21860 20-531); assay: as above
T9 construct: also called DI-DIII Fc; not shown: IgG1 Fc part

[20] = biological target: T10, HER3 fragment aa 458-643 Fc fusion protein (part of DIII and the entire DIV) (human, UniProt P21860 458-643); assay: as above
T10 construct: not shown: IgG1 Fc part

[21] = biological target: T11, Fc fusion protein containing HER3 DI-DII and a short part of DIII (aa 20-358) (human, UniProt P21860 20-358); assay: as above
T11 construct: not shown: IgG1 Fc part

[22] = biological target: T12, HER3 fragment aa 395-643 Fc fusion protein (part of DIII and the entire DIV) (human, UniProt P21860 395-643); assay: as above
T12 construct: not shown: IgG1 Fc part

HER3 DIV-Fc (aa 532-643) = biological target: T13, HER3 DIV-Fc (aa 532-643) (human, UniProt P21860 532-643); assay: as above
T13 construct: not shown: IgG1 Fc part

[23] = biological target: T1, HER3 on HER3-expressing tumor cells; assay: flow cytometry on A549 cells, PE-labeled secondary antibody; the small table prints no unit, the axis is Concentration [nM] [panel A549]
[24] = biological target: T1, HER3 on HER3-expressing tumor cells; assay: flow cytometry, FaDu cells; FaDu cells
[25] = biological target: T14, HER3-His (HER3 aa 27-599 of the extracellular domain fused C-terminally with a hexahistidyl-tag) (human, UniProt P21860 27-599); assay: quartz crystal microbalance (Attana), IgG 3-43 on chip, HER3-his as analyte
T14 construct: also called soluble His-tagged HER3; His-tagged extracellular domain of HER3; not shown: C-terminal hexahistidyl-tag

[26] = biological target: T1, HER3 on HER3-expressing tumor cells; assay: flow cytometry on NCI-N87 cells, PE-labeled secondary antibody; the small table prints no unit, the axis is Concentration [nM] [panel NCI-N87]
[27] = biological target: T1, HER3 on HER3-expressing tumor cells; assay: flow cytometry, FaDu cells
[28] = biological target: T1, HER3 on HER3-expressing tumor cells; assay: flow cytometry, BT474 cells
[29] = biological target: T6, HER3-Fc fusion protein (Fc fusion …); assay: quartz crystal microbalance (Attana), IgG 3-43 on chip, HER3-Fc as analyte (bivalent)

T5 sequence (Q61526 20-641): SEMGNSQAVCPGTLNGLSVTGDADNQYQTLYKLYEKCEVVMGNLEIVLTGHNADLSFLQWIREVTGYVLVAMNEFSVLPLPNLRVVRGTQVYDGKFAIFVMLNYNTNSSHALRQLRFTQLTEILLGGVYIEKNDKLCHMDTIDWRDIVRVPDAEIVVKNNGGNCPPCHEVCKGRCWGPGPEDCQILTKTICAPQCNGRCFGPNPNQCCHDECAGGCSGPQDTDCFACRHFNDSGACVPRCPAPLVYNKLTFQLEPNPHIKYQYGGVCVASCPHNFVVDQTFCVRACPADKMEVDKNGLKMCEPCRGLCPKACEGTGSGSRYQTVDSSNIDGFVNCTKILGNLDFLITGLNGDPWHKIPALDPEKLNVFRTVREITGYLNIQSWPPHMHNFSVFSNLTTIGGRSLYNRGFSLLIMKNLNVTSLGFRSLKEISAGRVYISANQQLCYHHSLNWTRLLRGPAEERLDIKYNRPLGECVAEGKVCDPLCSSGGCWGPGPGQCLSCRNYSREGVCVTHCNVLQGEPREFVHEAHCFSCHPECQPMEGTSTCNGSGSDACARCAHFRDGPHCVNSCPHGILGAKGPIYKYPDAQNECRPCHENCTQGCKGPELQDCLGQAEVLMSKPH

EC50 [1]: 0.045 nM
EC50 [2]: 0.006 nM
EC50 [3]: 0.0365 nM
EC50 [4]: 0.053 nM
binding result [5]: no binding
binding result [6]: no binding
binding result [7]: no binding
EC50 [8]: 0.0743 nM
EC50 [9]: 0.3 nM
EC50 [10]: 0.021 nM
EC50 (read off the curve) [11]: ~3 nM
EC50 [12]: 0.0302 nM
EC50 [13]: 0.022 nM
EC50 [14]: 0.027 nM
koff [15]: 0.000103 s⁻¹
kon [15]: 468000 M⁻¹ s⁻¹
EC50 [16]: 0.037 nM
EC50 (HER3-ECD protein): 0.33 nM
EC50 [17]: 0.0445 nM
binding result [18]: no binding
binding result [19]: no binding
binding result [20]: no binding
binding result [21]: no binding
binding result [22]: no binding
binding result (HER3 DIV-Fc (aa 532-643)): no binding
EC50 [23]: 0.0536 nM
EC50 [24]: 0.003 nM
koff [25]: 0.00696 s⁻¹
kon [25]: 622000 M⁻¹ s⁻¹
EC50 [26]: 0.0266 nM
EC50 [27]: 0.03 nM
EC50 [28]: 0.074 nM
Kd [29]: 0.22 nM
B1: IgG 3-43 (antibody)
heavy: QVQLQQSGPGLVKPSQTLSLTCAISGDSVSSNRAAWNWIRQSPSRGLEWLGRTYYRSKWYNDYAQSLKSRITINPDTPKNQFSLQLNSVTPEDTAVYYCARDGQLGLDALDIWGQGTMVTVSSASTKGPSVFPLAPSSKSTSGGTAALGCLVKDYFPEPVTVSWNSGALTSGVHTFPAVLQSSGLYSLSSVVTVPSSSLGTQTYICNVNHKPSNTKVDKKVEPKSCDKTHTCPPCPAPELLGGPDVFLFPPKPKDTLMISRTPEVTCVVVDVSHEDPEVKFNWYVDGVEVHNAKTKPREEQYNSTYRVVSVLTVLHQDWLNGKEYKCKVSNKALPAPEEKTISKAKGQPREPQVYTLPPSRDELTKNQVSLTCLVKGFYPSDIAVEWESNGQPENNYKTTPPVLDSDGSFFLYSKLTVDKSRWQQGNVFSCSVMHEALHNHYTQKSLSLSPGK
light: QAGLTQPPAVSVAPGQTASITCGRDNIGSRSVHWYQQKPGQAPVLVVYDDSDRPAGIPERFSGSNYENTATLTISRVEAGDEADYYCQVWGITSDHVVFGGGTKLTVLCGQPKAAPSVTLFPPSSEELQANKATLVCLISDFYPGAVTVAWKADSSPVKAGVETTTPSKQSNNKYAASSYLSLTPEQWKSHRSYSCQVTHEGSTVEKTVAPTECS
notes: also called 3-43-IgG; 3-43 IgG
